Molecular target: S. pneumoniae DNA topoisomerase I (TopoI), purified (S. pneumoniae)

histidine-tagged StaR (H6-StaR), product of spr0929 of Streptococcus pneumoniae R6 (natural protein)
relaxation of pBR322 by TopoI in vitro (37 °C, 1 h) with increasing StaR concentrations; percent of topoisomers (including OC/RC forms) at the highest StaR concentration (CCC form fell to 2.5%): 97.5%
